# Assay results: the DeepSol protein solubility set
# Assay: soluble on expression in E. coli; label from the status in PepcDB or PDB records
row,Sequence,soluble on expression in E. coli
1,MKRPNFLFVMTDTQATNMVGCYSGKPLNTQNIDSLAAEGIRFNSAYTCSPVCTPARAGLFTGIYANQSGPWTNNVAPGKNISTMGRYFKDAGYHTCYIGKWHLDGHDYFGTGECPPEWDADYWFDGANYLSELTEKEISLWRNGLNSVEDLQANHIDETFTWAHRISNRAVDFLQQPARADEPFLMVVSYDEPHHPFTCPVEYLEKYADFYYELGEKAQDDLANKPEHHRLWAQAMPSPVGDDGLYHHPLYFACNDFVDDQIGRVINALTPEQRENTWVIYTSDHGEMMGAHKLISKGAAMYDDITRIPLIIRSPQGERRQVDTPVSHIDLLPTMMALADIEKPEILPGENILAVKEPRGVMVEFNRYEIEHDSFGGFIPVRCWVTDDFKLVLNLFTSDELYDRRNDPNEMHNLIDDIRFADVRSKMHDALLDYMDKIRDPFRSYQWSLRPWRKDARPRWMGAFRPRPQDGYSPVVRDYDTGLPTQGVKVEEKKQKF,soluble
2,MKRVAAVIEYDGSNFFGYQGQPDVRTVQGVIEDALERIFKQRIYTQAAGRTDTGVHANGQLIAFNCPNDRMTTEDIRNAMNANLPDDVYVKEVFEVPVNFHPRFDVTKRIYHYFILTSRQKNVFLRKYVWWFPYELDLDAMRKAVKYLEGTHDFTSFKTGSDERDPVRTIYRIRILRLKNDLVLIRVEGRSFLRRMVRNIVAALVKVGLKQWEPEKMKEVLEARDRSAAAGTAPAHGLYFYKVLF,soluble
3,MKRVLIFADIFPPAFAPRAAYLTKYLPRFGWEPFVITEKMPTPASQSHGDVFGGFCSDIPVTAIDLSSASFLSQAIRSARLFGELFWEQKEERFYKEAAKAFPSVKFDAVLCLTYRKFPLATACRYAQAHRLPWVADCRDVIEQYSNYDFLPRGKRLPSLLMKWLRHRYISLRNHYLHKADRVVSVSPWHCNLLAEVNPRTELIYNGYDPELFSRGSLPCGKFILSYTGRLLTPEMHDPTLLFEALASEALQEVRKERRIELHWYVDEYSRSILQPFIRQYALKDMCRFFPMVPAVQVPEILRHSSVLLQLGNTEKPGGPHGIVSTKLFESLAMEKPILMVRSDEAIVADIISEAEAGLAAQTTEEVATFLSDQYTRWKAEGDTSLRNPNRNFISTFSREEEAKQYARLLESIVAN,not soluble
4,MKRYTPDFPEMMRLCEMNFSQLRRLLPRNDAPGETVSYQVANAQYRLTIVESTRYTTLVTIEQTAPAISYWSLPSMTVRLYHDAMVAEVCSSQQIFRFKARYDYPNKKLHQRDEKHQINQFLADWLRYCLAHGAMAIPVYLEHHHHHH,soluble
5,MKSACSIITASIVLYKSKPDIIRDVITSFFSDTVTKKKLILIDNSPTDSLRVLQEERPEDIQYFFNNRNIGFGSAHNIGIREAARFNPSYHLILNPDVQFGPEVVPTLASYMDENPDIGLLMPQVYYPNGELQHLCKLFPRPWDVMLRRFVPYRSYRERNNERFELRNWSYDTIQDIPSLSGCFMFARMDILREVGGFDERFFMYAEDLDLCRRIGQVSRTVFFPKVSIMHTYAKGSYHDAKLLRHHIVSLIRYFNKWGWLFDAERRRVNRACLAVLRNQTTVKKD,not soluble
6,MKSCRSCKENPEVQRKRAEKPWRRAPKAKSEVEKHGIGPPDSDSGEEISFPWYNVTGKMLVVGMHVEIKRSDGRIHGAVIAEVKSNGRFMVEWYEKGETKGKESSLEELLTLNPSLQAPKPTPPPQPPQKTLQASTAVNRQNGIHAQSMILDDEDTFLLDHINMIPAKGASANKRPTGAFTQHVPVRMAPPSEKPLPTRRAPSPKEDAAPAPKSTRTTAAFKPDLDSTAITVPKHTARRTVVVAPAPAPVPAPPIANMTSQRAPSPVARVPSPKNVPRSYPQQDVQPSNGNFAFAEMIRNYRAQIDYRPLSMFDGVNENRISVCVRKRPLNKKELTKAEVDVITIPSRDITILHQPQTRVDLTKYLDNQKFRFDYSFDEYANNELVYRFTAAPLVKTVFDNGTATCFAYGQTGSGKTHTMGGDFSGKKQNASMGIYALTARDVFRMLEQPQYRRKDLSVHCAFFEIYGTKTYDLLNDKAELRVLEDKMQKVQVVGLKEEQAHNEQDVLELINKGTLVRTAGTTSANANSSRSHAIFQIILRQGKKVWGKFSLIDLAGNERGQDTRECDRDTRKEGANINTSLLALKECIRGMARNSSHVPFRQSKLTMVLRDSFIGEKSRTVMISMISPGISSSDHTLNTLRYADRVKEMGTDGSGEATPIRDEELFLPPSADKSDEEYDEMVEKQEHRRVAVDHVRNLKDMSEKIIRETTIVLSNEPSAAQKAECLAKLDQLAQIVSNTRVAVENV,soluble
7,MKSEKETIYDYAAELKLLSFKEELECTLSLAAEENWNHLQFLTELLGKESARRRECRRRSRIRSAGFPQMKYLHELVMEDMPKEAQVILPELETLDFIRQGRNLVLYGNPGTGKTHIATALGIKACQQDFTVLFTSVPVLLTQIREAKSAKTLRTLQLRFEKYDLVICDEFGYVSCDKEGGELLFNHLSLRAGKKATIITTNLAFNRWNEIIKDKVLVAAMVDRLTHKAYLVNMTGLSYRLKETQKMRQDKLEHHHHHH,not soluble
8,MKSHDLKKALCQWTAMLALVVSGAVWAANGVDFSQSPEVSGTQEGAIRMPKEQDRMPLNYVNQPPMIPHSVEGYQVTTNTNRCLQCHGVESYRTTGAPRISPTHFMDSDGKVGAEVAPRRYFCLQCHVPQADTAPIVGNTFTPSKGYGK,soluble
9,MKTFIKGLVLSAVVASSQVYAEQTLNVYAWGGYLPEKSLKAFEQQEGVTINYSTFENNESMYTKLKLLKGTGYDVVFASAYFIEKMGREGLLAEIDHNQIPNMKDAMPTVLGLAHDPQNKFSLPYIWGITGLYYNSSTLPNGITKWADLWDKQYEQQVMLIDDIRDVFGMALKLNGFSINTKNEEEIKKAYESLVALKKNVLLYNSDAPHVPYVSGEATLGMQWNGNAYQGQVEMPELKFVMPEEGAVLWMDNFTIPSGSKNIPLAHKFINFMYQPENQAEIVQSLGYASATKGGRALLPAELRDNPTIFPSDEDMKKGEFINDVGPETLAIYEKYWQRLRNQ,not soluble
10,MKTFPVSIVTPDGPVYEKEVEMVSVKAESGEMGILPGHIPTVAPLKISAVRLKNGGHTDYVAVSGGFIEVRPDKVTVLSSSAEEANHIDIHRANEAKRRAEQRMQDKQAHVDFKRAEMALQRAVNRLNVSDMK,not soluble
11,MKTIDCRNMACPAPVVTTKRALEEAGGETVRVLVDAGAPRENVARFAANRGFRVAVEEADGGFAITIGSGEGAPSAPAENPARQGRTVMLITSDRLGDGPEDLGRLLMKSFIITLLDQESLPDRMMFLNSGVLLTTEGSEVLQALEQLGNRGVEVLSCGVCLDFFHCKEKLAAGTVTNMFTTAEALLTAGSVIRLLEHHHHHH,soluble
12,MKTIEIFDPAMCCPTGLCGTNINPELMRIAVVIETLKRQGVVVTRHNLRDEPQVYVSNKTVNQYLQKNGAEALPITLVDGEIAVSKDYPTTKQMSEWTGINLD,soluble
13,MKTIGLLGGMSWESTIPYYRLINEGVKARLGGLHSASLVLHSVDFHDIEACQSAGDWDRAGEILAEAAVGLQQAGAEGIVLCTNTMHKVADAIAARCQVPFLHIADATGRAIAAKGQRRVALLGTRYTMEQTFYRGRLQEQFAIETLIPEADDRAQINQIIFDELCLGTFSEASRDYYLQTIAALAEQGAEGVIFGCTEIGLLVPAELSPLPVFDTAAIHAEDAVNFMLSAGPTPAA,not soluble
14,MKTIHIRELADWLDGALQAARFKDYCPNGLQVEGKAEIAHIITGVTASEALLRAAIERGADAVLVHHGWFWRNEDRRVLGPRRTRLALALGHELNLLAYHLPLDAHPQWGNNAQLARVLGLQAETGPDGAPRTCGADNLVWLGSAPGVQTVAQLQQRVAERLGRTPLVVGEPDRPVRRVAWCTGGAQGMLADAVDAGADAYITGEASESTVHLARETGVAFVGAGHHATERYGVQALGEAVARQFGIRVEFIDIDNPVLEHHHHHH,not soluble
15,MKTITLYLDPASLPALNQLMDFTQNNEDKTHPRIFGLSRFKIPDNIITQYQNIHFVELKDNRPTEALFTILDQYPGNIELNIHLNIAHSVQLIRPILAYRFKHLDRVSIQQLNLYDDGSMEYVDLEKEENKDISAEIKQAEKQLSHYLLTGKIKFDNPTIARYVWQSAFPVKYHFLSTDYFEKAEFLQPLKEYLAENYQKMDWTAYQQLTPEQQAFYLTLVGFNDEVKQSLEVQQAKFIFTGTTTWEGNTEVREYYAQQQLNLLNHFTQAEGDLFIGDHYKIYFKGHPRGGEINDIILNNAKNITNIPANISFEVLMMTGLLPDKVGGVASSLYFSLPKEKISHIIFTSNKQVKSKEDALNNPYVKVMRRLGIIDESQVIFWDSLKELGGG,soluble
16,MKTLFAFFILIFSNIVYAAPKAELWAYWQASNDSNTASVSHQAWQSILDRNLVQVGENALFRYAEVTKEDKTLLNDYLDQLSKLDPREFNRQEQYAYWVNLYNALTVKLILDNYPVASITKLGGLFSFGPWDEKVFTVAGQTLTLNDIEHRILRPIWKDPRTHYAVNCASLGCPNLQSQAFTAQNTERLLSNAAHTFINSSKGATLNNDTLILSSIYDWFAVDFGNKKELLIHLAQYRPELSLYSGKIDYQYDWKLNDTKEKKLEHHHHHH,soluble
17,MKTLLQTTLKLLVASSLVLGMTASTLMAETKSKFQVAWTIYVGWMPWDYAAQSGILDKWAKKYGIEIEMVQVNDYVESINQYTAGKFDGCVMTNMDALTIPAAGGVNSTALIAGDFSNGNDGIILKGKKRLSEIKGQKVNLMELSVSHYLLARGLESVGLSERDVSVVNTSDADIVAAYSTKEVSALVTWNPQLSEVKSMKGANLVFDSSQIPGEIIDLMVLNTQTLKENPNLGKALTGAWFEVLALMKKGDLTALSAMAKASGTDLAGYKKQLESTKMFYEASEAVKFITSAELPETMKKVSEFSFEHGILGEGASSAAFVGMEFPGGKSFGDPKNLKLRFIDTYVKMAAEGKL,not soluble
18,MKTLPVLPGQAASSRPSPVEIWQILLSRLLDQHYGLTLNDTPFADERVIEQHIEAGISLCDAVNFLVEKYALVRTDQPGFSACTRSQLINSIDILRARRATGLMTRDNYRTVNNITLGKYPEAK,soluble
19,MKTLYDKLWSDHVVHAESDDPNGMVILYIDRHLVHEVTSPQAFESLKLAGRKPWRTGSILAVADHNVPTTDRSSGISDPVSRLQVETLDQNCEEFAITEFRMNDERQGIVHVIGPEQGATLPGMTVVCGDSHTSTHGAFACLAFGIGTSEVEHVLATQCLVARKSKTMLVRVEGDLPPGVTAKDIALAVIGEIGTAGGTGYAIEFAGSAIRSLSMEGRMTLCNMAIEAGARAGMVGADEVTIDYIKGRPFAPQGALWDQAVAYWRTLKSDEDAVFDRMVELKAVNIKPQVTWGTSPEMVTTVDGYVPDPADISDPTKRHDVEHALGYMGLKPKMPIQEITLDKVFIGSCTNSRIEDLRAAAEIVKGKRIAPNIRLAMVVPGSGLVKSMAEKEGLDKIFLSAGFEWREPGCSMCLAMNDDRLLPGERCASTSNRNFEGRQGPGGRTHLVSPAMAAAAAIAGHFVDVRSFIR,not soluble
20,MKTRITELLKIDYPIFQGGMAWVADGDLAGAVSKAGGLGIIGGGNAPKEVVKANIDKIKSLTDKPFGVNIMLLSPFVEDIVDLVIEEGVKVVTTGAGNPSKYMERFHEAGIIVIPVVPSVALAKRMEKIGADAVIAEGMEAGGHIGKLTTMTLVRQVATAISIPVIAAGGIADGEGAAAGFMLGAEAVQVGTRFVVAKESNAHPNYKEKILKARDIDTTISAQHFGHAVRAIKNQLTRDFELAEKDAFKQEDPDLEIFEQMGAGALAKAVVHGDVDGGSVMAGQIAGLVSKEETAEEILKDLYYGAAKKIQEEASRWTGVVRND,not soluble
21,MKTSANIATSASGNGLADVLERVLDKGVVIAGDISVSIASTELLNIKIRLLISSVERAKEIGINWWESDPYFSSQNNSLVQANEKLLERVASLESEIKALRSN,not soluble
